Laboratory results taken from US20120219551A1.

Assays:
[1] = biological target: FcγRIIIA, soluble monomeric protein (extracellular region joined to the linker-AVITAG sequence) (human) (UniProt P08637); experiment: yeast display FACS, biotinylated receptor chased with unlabeled receptor
[2] = biological target: soluble dimeric FcγRIIB-Fc fusion protein (extracellular domain of FcγRIIB fused to hinge-CH2-CH3 of human IgG2) (human) (UniProt P31994); experiment: SPR (BIAcore), Ab captured on BSA-FITC, separate fit 200/800 nM
Chain of soluble dimeric FcγRIIB-Fc fusion protein (extracellular domain of FcγRIIB fused to hinge-CH2-CH3 of human IgG2) (human) (P31994 43-217): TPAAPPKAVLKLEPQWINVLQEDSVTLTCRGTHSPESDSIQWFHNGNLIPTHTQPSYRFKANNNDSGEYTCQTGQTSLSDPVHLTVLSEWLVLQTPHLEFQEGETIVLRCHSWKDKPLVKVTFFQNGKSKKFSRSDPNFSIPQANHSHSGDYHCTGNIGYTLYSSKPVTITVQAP

[3] = biological target: soluble monomeric FcγRIIIA (extracellular region of FcγRIIIA joined to the linker-AVITAG sequence) (human) (UniProt P08637); experiment: as above
Chain of soluble monomeric FcγRIIIA (extracellular region of FcγRIIIA joined to the linker-AVITAG sequence) (human) (P08637 17-208): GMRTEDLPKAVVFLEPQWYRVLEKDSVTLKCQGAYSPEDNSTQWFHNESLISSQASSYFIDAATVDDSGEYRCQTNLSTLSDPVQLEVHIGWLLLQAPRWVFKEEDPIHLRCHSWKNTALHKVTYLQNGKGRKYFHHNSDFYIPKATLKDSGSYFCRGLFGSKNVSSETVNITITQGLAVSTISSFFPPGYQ

[4] = biological target: soluble dimeric FcγRIIB-Fc fusion protein (extracellular domain of FcγRIIB fused to hinge-CH2-CH3 of human IgG2) (human) (UniProt P31994); experiment: ELISA of FcγRIIB binding, OD printed beside the sensorgram (Table 15 prints 0.08)
[5] = biological target: FcγRIIIA on natural killer cells of human donor PBMC (human) (UniProt P08637); experiment: cell-based or functional assay
Chain of FcγRIIIA on natural killer cells of human donor PBMC (human) (P08637 17-254): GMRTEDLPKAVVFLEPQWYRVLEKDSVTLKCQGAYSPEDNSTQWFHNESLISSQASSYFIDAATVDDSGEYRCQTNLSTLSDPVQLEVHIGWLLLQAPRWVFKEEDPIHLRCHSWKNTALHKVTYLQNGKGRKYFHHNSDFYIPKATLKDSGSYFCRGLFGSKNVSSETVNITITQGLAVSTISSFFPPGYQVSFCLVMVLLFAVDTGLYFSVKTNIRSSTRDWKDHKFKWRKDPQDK

[6] = biological target: soluble monomeric FcγRIIIA (extracellular region of FcγRIIIA joined to the linker-AVITAG sequence) (human) (UniProt P08637); experiment: BIAcore: FcγRIIIA at 200 nM and 800 nM over ch4-4-20 captured on BSA-FITC; separate fit, average of the two concentrations (Table 14 prints 90)
[7] = biological target: soluble monomeric FcγRIIIA (extracellular region of FcγRIIIA joined to the linker-AVITAG sequence) (human) (UniProt P08637); experiment: BIAcore: FcγRIIIA at 200 nM and 800 nM over ch4-4-20 captured on BSA-FITC; separate fit, average of the two concentrations (Table 14 prints 0.075)
[8] = biological target: soluble dimeric FcγRIIB-Fc fusion protein (extracellular domain of FcγRIIB fused to hinge-CH2-CH3 of human IgG2) (human) (UniProt P31994); experiment: ELISA
[9] = biological target: soluble monomeric FcγRIIIA (extracellular region of FcγRIIIA joined to the linker-AVITAG sequence) (human) (UniProt P08637); experiment: ELISA
[10] = biological target: soluble dimeric FcγRIIB-Fc fusion protein (extracellular domain of FcγRIIB fused to hinge-CH2-CH3 of human IgG2) (human) (UniProt P31994); experiment: BIAcore: FcγRIIB-Fc fusion at two concentrations over ch4-4-20 captured on BSA-FITC; separate fit, average of the two concentrations (Table 15 prints 0.085)

Chain of FcγRIIIA, soluble monomeric protein (extracellular region joined to the linker-AVITAG sequence) (human) (P08637 17-208 F176V limits assumed, form in doubt): as the sequence (P08637 17-208) above, with F160V counted along it

Substance	loss of cell staining after 1 minute with unlabeled FcγRIIIA [1]	Kd [2]	koff [2]	Kd [3]	koff [3]	kon [3]	ELISA, OD [4]	ADCC, % [5]	Kd [6]	koff [7]	ELISA, OD [8]	ELISA, OD [9]	koff [10]
Fc variant P396L (from UniProt P01857 1-330) (antibody)	50%												
ch4-4-20 Mut11 (R255L, F243L) (antibody)		82.3 nM	0.1 s⁻¹	90 nM	0.075 s⁻¹	822000 M⁻¹ s⁻¹	0.1 OD	32%	91.8 nM	0.073 s⁻¹	0.08 OD	0.37 OD	
ch4-4-20 wild type (chimeric anti-fluorescein antibody, IgG1)		61.4 nM	0.085 s⁻¹	319 nM				17.5%			0.4 OD	0.5 OD	0.0847 s⁻¹
